The target in this assay is T1, recombinant His-tagged AGO2 (UniProt Q9UKV8 1-859).
T1 construct: AGO2 (argonaute 2); Detected on the array by an HRP-conjugated 6xHis antibody; amine-coupled to a CM5 chip in the SPR; also called His-AGO2; AGO2 recombinant protein; source: recombinant, purified
The assay can be described thus: SPR; Biacore T200; His-AGO2 immobilised on a CM5 chip by amine coupling (~7000 RU); peptides 20 to 1280 nM in HBS-P (10 mM HEPES, 150 mM NaCl, 0.005% T20, pH 7.4), 30 µL/min; Langmuir 1:1 model. Conditions: both partners purified.

The values below come from PMC8833744, “Strategic Decoy Peptides Interfere with MSI1/AGO2 Interaction to Elicit Tumor Suppression Effects” (Cancers, 2022).

T1 sequence (Q9UKV8 whole entry): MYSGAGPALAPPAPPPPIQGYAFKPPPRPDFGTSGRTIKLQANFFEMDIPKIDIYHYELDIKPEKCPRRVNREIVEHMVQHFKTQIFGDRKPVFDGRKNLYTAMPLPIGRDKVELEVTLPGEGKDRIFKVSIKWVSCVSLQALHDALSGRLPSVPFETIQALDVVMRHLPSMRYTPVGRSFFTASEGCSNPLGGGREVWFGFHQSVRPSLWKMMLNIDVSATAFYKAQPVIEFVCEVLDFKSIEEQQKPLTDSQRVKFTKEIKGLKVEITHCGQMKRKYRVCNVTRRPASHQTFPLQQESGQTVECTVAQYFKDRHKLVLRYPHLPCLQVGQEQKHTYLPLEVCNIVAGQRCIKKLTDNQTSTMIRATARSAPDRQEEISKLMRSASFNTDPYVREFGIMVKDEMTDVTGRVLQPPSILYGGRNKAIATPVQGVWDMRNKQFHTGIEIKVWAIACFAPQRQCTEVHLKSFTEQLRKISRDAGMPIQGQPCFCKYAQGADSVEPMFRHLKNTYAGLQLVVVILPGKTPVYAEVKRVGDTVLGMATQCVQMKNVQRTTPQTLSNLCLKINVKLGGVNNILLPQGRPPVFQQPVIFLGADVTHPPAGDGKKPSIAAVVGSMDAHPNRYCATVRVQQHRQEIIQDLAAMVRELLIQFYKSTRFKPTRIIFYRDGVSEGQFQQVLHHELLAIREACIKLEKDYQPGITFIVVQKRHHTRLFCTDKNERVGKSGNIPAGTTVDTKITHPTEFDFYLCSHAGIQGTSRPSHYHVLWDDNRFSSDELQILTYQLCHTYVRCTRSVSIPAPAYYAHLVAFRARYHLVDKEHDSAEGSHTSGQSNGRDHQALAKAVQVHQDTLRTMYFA

For HSLGGPLIATAFTNG [Pep#26 (decoy peptide as used in the SPR)], the dissociation constant Kd was 674 nM. Under YQFPEFRVERTPLPS [Pep#11 (decoy peptide as used in the SPR)] stands 515 nM.
